This note sets out measurements from US20230355708A1.

What is called Kd is the concentration at which binding is half-saturated. Low readings indicate a tighter complex, high ones a looser complex.

One assay deals with Yu gp120. The experiment in a line: SPR.
In the next assay the target is S1 (SARS-CoV-2) (UniProt P0DTC2). The experiment in a line: SPR. In general terms: In SPR one partner is held on a chip, and binding of the other changes the refractive index at the surface.

In the assay with Yu gp120, P51G-CVN-HIS(OK) returned a Kd of 22.8 nM.
On to ACE2, for which the Kd with S1 (SARS-CoV-2) stood at 2.4 nM.
